According to patent US20070117180:

PACE4 (Plasminogen Angiostatin Converting Enzyme of pH 4), sequence (chain, as listed by the source): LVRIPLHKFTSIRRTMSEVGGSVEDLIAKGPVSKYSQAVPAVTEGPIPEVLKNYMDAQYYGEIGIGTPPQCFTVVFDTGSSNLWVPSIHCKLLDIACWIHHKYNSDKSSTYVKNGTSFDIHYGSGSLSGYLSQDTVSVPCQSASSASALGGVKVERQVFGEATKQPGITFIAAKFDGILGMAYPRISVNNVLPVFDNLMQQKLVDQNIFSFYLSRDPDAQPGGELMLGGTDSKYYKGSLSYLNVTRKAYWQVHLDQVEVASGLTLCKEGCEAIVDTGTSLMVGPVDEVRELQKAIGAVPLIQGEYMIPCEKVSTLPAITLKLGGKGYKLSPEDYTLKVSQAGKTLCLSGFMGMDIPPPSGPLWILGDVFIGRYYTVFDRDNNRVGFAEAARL
plasminogen (Glu-1), sequence (chain, as listed by the source): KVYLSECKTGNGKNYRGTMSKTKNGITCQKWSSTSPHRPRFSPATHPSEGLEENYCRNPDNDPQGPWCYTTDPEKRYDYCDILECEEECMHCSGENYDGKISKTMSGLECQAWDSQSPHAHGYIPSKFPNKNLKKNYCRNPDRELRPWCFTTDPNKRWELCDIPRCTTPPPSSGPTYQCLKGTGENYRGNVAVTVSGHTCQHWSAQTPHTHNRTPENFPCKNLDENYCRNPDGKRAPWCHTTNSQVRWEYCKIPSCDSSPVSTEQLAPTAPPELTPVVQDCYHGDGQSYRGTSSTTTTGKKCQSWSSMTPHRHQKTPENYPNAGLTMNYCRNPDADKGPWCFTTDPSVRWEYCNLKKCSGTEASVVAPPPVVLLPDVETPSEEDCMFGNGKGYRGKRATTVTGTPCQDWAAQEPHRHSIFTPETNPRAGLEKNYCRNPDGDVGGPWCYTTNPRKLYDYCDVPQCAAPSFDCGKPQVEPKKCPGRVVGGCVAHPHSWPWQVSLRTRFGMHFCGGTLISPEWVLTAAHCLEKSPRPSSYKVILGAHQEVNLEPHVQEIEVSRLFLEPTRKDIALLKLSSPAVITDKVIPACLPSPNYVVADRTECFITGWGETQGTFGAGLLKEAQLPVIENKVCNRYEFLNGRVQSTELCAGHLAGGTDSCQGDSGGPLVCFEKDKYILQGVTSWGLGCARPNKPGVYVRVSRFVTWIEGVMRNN

In the case of “PACE4 (Plasminogen Angiostatin Converting Enzyme of pH 4)”, the “fragmentation of plasminogen (SDS-PAGE) at neutral and acidic pH” value (plasminogen (Glu-1)) is reported as “the enzyme of the present invention fragments plasminogen only at an acidic range of pH” and the “degradation of fibronectin by the enzyme” value (fibronectin) is reported as “Fibronectin was degraded restrictedly with this enzyme”.
